To fix the notation:
B1: huB8G11F2B7G5E8-V1 (antibody, human IgG4 S228P, kappa, V domains shown)
VH: EVQLVQSGAEVKKPGATVKISCKASGFNIKDTYMHWVKQAPGKGLEWVGRIDPTNGYTIYASKFQGKATITADTSSNTAYMELSSLRSEDTAVYHCVSRRPWFAYWGQGTLVTVSS
VL: DIVMTQTPLSLSVTPGQPASISCRSSQSIVHSNGNTYLEWYLQKPGQSPQLLIYKVTNRFSGVPDRFSGSGSGTDFTLKISRVEAEDVGVYYCFQGSHVPYTFGQGTKLEIKR
notes: Humanized, human IgG4/kappa; also called huBSG11F2B7G5E8-V1
B2: huB8G11F2B7G5E8-V13 (antibody, human IgG4 S228P, kappa, V domains shown)
VH: QVQLQQSGAELVKPGASVKLSCTASGFNIKDTYMHWVKQRPEQGLEWVGRIDPTNGYTIYASKFQGKATITADTSSNTAYMQLSSLTSEDTAVYHCVSRRPWFAYWGQGTTLTVSS
VL: DIVMTQTPLSLSVTPGQPASISCRSSQSIVHSNGNTYLEWYLQKPGQSPQLLIYKVTNRFSGVPDRFSGSGSGTDFTLKISRVEAEDVGVYYCFQGSHVPYTFGQGTKLEIKR
notes: Humanized, human IgG4/kappa; also called huBSG11F2B7G5E8-V13
B3: huB8G11F2B7G5E8-V10 (antibody, human IgG4 S228P, kappa, V domains shown)
VH: EVQLVQSGAEVKKPGATVKISCKASGFNIKDTYMHWVKQAPGKGLEWVGRIDPTNGYTIYASKFQGRVTITADTSTNTAYMELSSLRSEDTAVYHCVSRRPWFAYWGQGTLVTVSS
VL: DIVMTQTPLSLSVTPGQPASISCRSSQSIVHSNGNTYLEWYLQKPGQSPQLLIYKVTNRFSGVPDRFSGSGSGTDFTLKISRVEAEDVGVYYCFQGSHVPYTFGQGTKLEIKR
notes: Humanized, human IgG4/kappa; also called huBSG11F2B7G5E8-V10
B4: huB8G11F2B7G5E8-V9 (antibody, human IgG4 S228P, kappa, V domains shown)
VH: EVQLVQSGAEVKKPGATVKISCKASGFNIKDTYMHWVKQAPGKGLEWVGRIDPTNGYTIYASKFQGKATITADTSSNTAYMELSSLRSEDTAVYYCVSRRPWFAYWGQGTLVTVSS
VL: DIVMTQTPLSLSVTPGQPASISCRSSQSIVHSNGNTYLEWYLQKPGQSPQLLIYKVTNRFSGVPDRFSGSGSGTDFTLKISRVEAEDVGVYYCFQGSHVPYTFGQGTKLEIKR
notes: Humanized, human IgG4/kappa; also called huBSG11F2B7G5E8-V9
B5: huB8G11F2B7G5E8-V7 (antibody, human IgG4 S228P, kappa, V domains shown)
VH: EVQLVQSGAEVKKPGATVKISCKASGFNIKDTYMHWVKQAPGKGLEWVGRIDPTNGYTIYASKFQGKATITADTSTNTAYMELSSLRSEDTAVYHCVSRRPWFAYWGQGTLVTVSS
VL: DIVMTQTPLSLSVTPGQPASISCRSSQSIVHSNGNTYLEWYLQKPGQSPQLLIYKVTNRFSGVPDRFSGSGSGTDFTLKISRVEAEDVGVYYCFQGSHVPYTFGQGTKLEIKR
notes: Humanized, human IgG4/kappa; also called huBSG11F2B7G5E8-V7
B6: huB8G11F2B7G5E8-V3 (antibody, human IgG4 S228P, kappa, V domains shown)
VH: EVQLVQSGAEVKKPGATVKISCKASGFNIKDTYMHWVQQAPGKGLEWVGRIDPTNGYTIYASKFQGKATITADTSSNTAYMELSSLRSEDTAVYHCVSRRPWFAYWGQGTLVTVSS
VL: DIVMTQTPLSLSVTPGQPASISCRSSQSIVHSNGNTYLEWYLQKPGQSPQLLIYKVTNRFSGVPDRFSGSGSGTDFTLKISRVEAEDVGVYYCFQGSHVPYTFGQGTKLEIKR
notes: Humanized, human IgG4/kappa; also called huBSG11F2B7G5E8-V3
B7: huB8G11F2B7G5E8-V11 (antibody, human IgG4 S228P, kappa, V domains shown)
VH: EVQLVQSGAEVKKPGATVKISCKVSGFNIKDTYMHWVQQAPGKGLEWMGLIDPTNGYTIYAEKFQGRVTITADTSTDTAYMELSSLRSEDTAVYYCVSRRPWFAYWGQGTLVTVSS
VL: DIVMTQTPLSLSVTPGQPASISCRSSQSIVHSNGNTYLEWYLQKPGQSPQLLIYKVTNRFSGVPDRFSGSGSGTDFTLKISRVEAEDVGVYYCFQGSHVPYTFGQGTKLEIKR
notes: Humanized, human IgG4/kappa; also called huBSG11F2B7G5E8-V11
B8: huB8G11F2B7G5E8-V8 (antibody, human IgG4 S228P, kappa, V domains shown)
VH: EVQLVQSGAEVKKPGATVKISCKASGFNIKDTYMHWVKQAPGKGLEWVGRIDPTNGYTIYASKFQGKATITADTSSDTAYMELSSLRSEDTAVYHCVSRRPWFAYWGQGTLVTVSS
VL: DIVMTQTPLSLSVTPGQPASISCRSSQSIVHSNGNTYLEWYLQKPGQSPQLLIYKVTNRFSGVPDRFSGSGSGTDFTLKISRVEAEDVGVYYCFQGSHVPYTFGQGTKLEIKR
notes: Humanized, human IgG4/kappa; also called huBSG11F2B7G5E8-V8
B9: huB8G11F2B7G5E8-V6 (antibody, human IgG4 S228P, kappa, V domains shown)
VH: EVQLVQSGAEVKKPGATVKISCKASGFNIKDTYMHWVKQAPGKGLEWVGRIDPTNGYTIYASKFQGKVTITADTSSNTAYMELSSLRSEDTAVYHCVSRRPWFAYWGQGTLVTVSS
VL: DIVMTQTPLSLSVTPGQPASISCRSSQSIVHSNGNTYLEWYLQKPGQSPQLLIYKVTNRFSGVPDRFSGSGSGTDFTLKISRVEAEDVGVYYCFQGSHVPYTFGQGTKLEIKR
notes: Humanized, human IgG4/kappa; also called huBSG11F2B7G5E8-V6
B10: huB8G11F2B7G5E8-V5 (antibody, human IgG4 S228P, kappa, V domains shown)
VH: EVQLVQSGAEVKKPGATVKISCKASGFNIKDTYMHWVKQAPGKGLEWVGRIDPTNGYTIYASKFQGRATITADTSSNTAYMELSSLRSEDTAVYHCVSRRPWFAYWGQGTLVTVSS
VL: DIVMTQTPLSLSVTPGQPASISCRSSQSIVHSNGNTYLEWYLQKPGQSPQLLIYKVTNRFSGVPDRFSGSGSGTDFTLKISRVEAEDVGVYYCFQGSHVPYTFGQGTKLEIKR
notes: Humanized, human IgG4/kappa; also called huBSG11F2B7G5E8-V5

This experiment addresses T1, recombinant human IL4Rα-his protein (in house made) (human, UniProt P24394 26-232, limits assumed).
T1 construct: also called Human IL4Ra-his
Briefly: SPR (Biacore), antibody captured, IL4Rα-his flowed.
For orientation: Kd means the concentration at which binding is half-saturated. Broadly, the koff is a measure of how fast the partners let go of each other. A word on the kon: it is the second-order rate constant of association. Take B1: the dissociation constant Kd was 3.73 nM, the off-rate constant (koff) was 0.00208 s⁻¹ and the association rate constant (kon) was 557000 M⁻¹ s⁻¹.
On the same counts, the results for B2 are 3.87 nM, 0.0012 s⁻¹ and 310000 M⁻¹ s⁻¹.
On the same counts, the results for B3 are 4.79 nM, 0.0028 s⁻¹ and 585000 M⁻¹ s⁻¹.
Regarding B4, the Kd worked out at 5.32 nM, the koff was determined as 0.00331 s⁻¹ and the on-rate (kon) is 621000 M⁻¹ s⁻¹.
In the same order, the values of B5 are 3.75 nM, 0.00222 s⁻¹ and 592000 M⁻¹ s⁻¹.
Turning to B6, the dissociation constant Kd was determined as 3.57 nM, the koff was 0.00199 s⁻¹ and the kon came out at 558000 M⁻¹ s⁻¹.
Consider B7, for which the Kd stood at 14.9 nM.
Take B8: the dissociation constant (Kd) is 4.89 nM, the off-rate constant (koff) was 0.00283 s⁻¹ and the kon was 578000 M⁻¹ s⁻¹.
In the same order, the values of B9 are 3.95 nM, 0.00219 s⁻¹ and 554000 M⁻¹ s⁻¹.
On the same counts, the results for B10 are 4.13 nM, 0.00241 s⁻¹ and 584000 M⁻¹ s⁻¹.
